# Experimental data: US8632989B1, “Mutant insulin degrading enzyme and methods of use” (University of Kentucky Research Foundation, priority 2011, dated 2014)
# B1: IDE: Native rat insulin degrading enzyme (SEQ ID NO:1), expressed as hexahistidine fusion protein in Sf9 insect cells (protein, listed as Rattus norvegicus)
# chain: MRNGLVWLLHPALPSTLHSILGARPPPVKRLCGFPKQIYSTMNNPAIQRIEDHIVKSPEDKREYRGLELANGIKVLLISDPTTDKSSAALDVHIGSLSDPPNIPGLSHFCEHMLFLGTKKYPKENEYSQFLSEHAGSSNAFTSGEHTNYYFDVSHEHLEGALDRFAQFFLCPLFDASCKDREVNAVDSEHEKNVMNDAWRLFQLEKATGNPKHPFSKFGTGNKYTLETRPNQEGIDVREELLKFHSTYYSSNLMAICVLGRESLDDLTNLVVKLFSEVENKNVPLPEFPEHPFQEEHLKQLYKIVPIKDIRNLYVTFPIPDLQQYYKSNPGHYLGHLIGHEGPGSLLSELKSKGWVNTLVGGQKEGARGFMFFIINVDLTEEGLLHVEDIILHMFQYIQKLRAEGPQEWVFQECKDLNAVAFRFKDKERPRGYTSKIAGKLHYYPLNGVLTAEYLLEEFRPDLIDMVLDKLRPENVRVAIVSKSFEGKTDRTEQWYGTQYKQEAIPEDVIQKWQNADLNGKFKLPTKNEFIPTNFEILALEKDATPYPALIKDTAMSKLWFKQDDKFFLPKACLNFEFFSPFAYVDPLHCNMAYLYLELLKDSLNEYAYAAELAGLSYDLQNTIYGMYLSVKGYNDKQPILLKKITEKMATFEIDKKRFEIIKEAYMRSLNNFRAEQPHQHAMYYLRLLMTEVAWTKDELKEALDDVTLPRLKAFIPQLLSRLHIEALLHGNITKQAALGVMQMVEDTLIEHAHTKPLLPSQLVRYREVQLPDRGWFVYQRRNEVHNNCGIEIYYQTDMQSTSENMFLELFCQIISEPCFNTLRTKEQLGYIVFSGPRRANGIQGLRFIIQSEKPPHYLESRVEAFLITMEKAIEDMTEEAFQKHIQALAIRRLDKPKKLSAECAKYWGEIISQQYNYDRDNIEVAYLKTLSKDDIIKFYKEMLAVDAPRRHKVSVHVLAREMDSCPVVGEFPSQNDINLSEAPPLPQPEVIHNMTEFKRGLPLFPLVKPHINFMAAKL
# modifications: hexahistidine tag; wild-type Insulin Degrading Enzyme (IDE) from rat
# Tests used:
# Saccharomyces cerevisiae [1] = assay: IDE activity assay in yeast, spot halo assay for a-factor production; format: cell-based; conditions: spot halo assay on RC757 lawn
# Procedure: (§1) Panel A depicts immunoblot of yeast-expressed IDE and IDE^K898A,K899A,S901A. Equivalent percentage amounts of total cellular extracts from yeast containing an empty expression vector or plasmids encoding IDE or the IDE^K898A,K899A,S901A mutant were analyzed by SDS-PAGE and immunoblotting using an IDE-specific antibody. […] An excess of MATa yeast were mixed with decreasing numbers of MATa cells deficient for Axl1p and Step 23p that were transformed with either an empty expression vector or a vector encoding IDE or IDE^K898A,K899A,S901A as indicated. Mating, which leads to colony growth, is dependent on production of mature a-factor pheromone by plasmid-encoded IDE. […] Concentrated samples of a-factor recovered from yeast bearing the indicated expression vector were spotted at the indicated dilutions on a lawn of RC757 MATa cells, which undergo growth arrest upon exposure to a-factor pheromone. […]
# (§2) The assays take advantage of the ability of IDE, in lieu of the yeast M16 metallopeptidases Axl1p and Step 23p, to participate in the proteolytic maturation of yeast a-factor mating pheromone. […] Growth of diploid colonies, indicative of mating, was scored 3 days after incubation of plates at 30° C. […] Results of mating tests and halo assays were recorded by scanning plates with a Microtek flatbed scanner and importing digitized images into Photoshop and PowerPoint.
# Saccharomyces cerevisiae [2] = assay: IDE activity assay in yeast, serial dilution mating test; format: cell-based; conditions: MATa cells deficient for Axl1p and Ste23p, plasmid-encoded IDE
# Procedure: as §1, §2
# [3] = ATPase activity, Pi release with acid-molybdate; format: biochemical; conditions: 1 mM ATP as substrate
# Procedure: IDE activity was determined by measuring the increase in fluorescence that occurs when the enzyme cleaves the internally quenched fluorogenic substrate Abz-[…]-EDDnp (SEQ ID NO:3) at the R—K bond (Song et al., Journal of Biologial Chemistry 276, 1152-1155 (2001)). The reaction was followed on a SpectraMax Gemini XS fluorescence plate reader using an excitation and emission wavelengths of 318 nm and 419 nm, respectively. Initial velocities were determined using SoftMax Pro 4.0 and kinetic constants calculated using GraphPad Prism 4.0. ATPase activity was measured by following Pi release with acid-molybdate as described by Harder et al. (Harder et al., Biochemical Journal 298 (Pt 2), 395-401 (1994)).
# [4] = Fluorescence measurements of TNP-ATP binding, wild type rIDE and distal site mutants; conditions: hyperbolic one site binding fit, 20 °C
# Procedure: The fluorescence increase on binding of (2,4,6-trinitrophenyl)ATP (TNP-ATP) is plotted for the indicated IDE constructs as a function of ligand concentration. Data were fit to a hyperbolic one site binding mechanism.
# Fluorescence emission spectra of 10 μM TNP-ATP in […] Tris-HCl, pH7.4, was measured in the presence of 1.5 μM of each wild type IDE and the indicated IDE distal mutants. Fluorescence spectra were recorded with a λexc=403 nm on a Perkin-Elmer LS55 Luminescence Spectrometer.
# Fluorescence measurements of TNP-ATP binding were performed on a Perkin-Elmer LS55 Luminescence Spectrometer. Titrations were monitored at an excitation wavelength of 403 nm and emission wavelength of 547 nm. The temperature of the sample was maintained at 20±0.1° C. by circulating thermostatically controlled water through the cuvette holder. Assays were conducted in 200 μL reaction mixtures containing 50 mM Tris-HCl, pH, 7.4, 10 μM Abz-[…]-EDDnp (SEQ ID NO:3) as substrate, and 0.5 μg wild type rIDE, 2.3 μg rIDE-V3605, 2.0 μg rIDE-I3745 or 1.62 μg rIDEY609F and the indicated concentration of ATP. The fluorescence of TNP-ATP was subtracted from the total fluorescence of enzyme+TNP-ATP to yield specific fluorescence enhancement (ΔF).
molecule,measurement,setting,value
B1,production of a-factor by yeast,Saccharomyces cerevisiae [1],greater production of a-factor
same,mating promoted in yeast,Saccharomyces cerevisiae [2],promoted mating to a greater extent
same,IDE-dependent ATPase activity,[3],less than 1 nmol/min/mg IDE
same,Kd,[4],1000 ± 100 nM
